Data published in publication PMC11602133, “Uncoupling [sequence]’s functions through modification of a protein motif identified by co-ortholog analysis” (Nucleic Acids Research, 2024).

Biological target: the molecule itself
Assay: native gel or EMSA; in vitro produced proteins (wheat germ TnT) mixed with a DY-682 labelled ~100 bp DNA probe containing a CArG-box (SAUR10 probe); protein complexes read from the shifted bands on DNA; anti-FLAG antibody added for supershift where FUL-FLAG was used

B1: FRUITFULL (FUL), Arabidopsis, in vitro produced (natural protein)
chain: not shown
notes: also called FUL(ST); source: in vitro translated (TnT SP6 High-Yield Wheat Germ Protein Expression System, pSPUTK vector)
  stoichiometry N: 2
